The source of these data is US20230285583A1, “LIQUID FORMULATION OF LONG-ACTING CONJUGATE OF GLUCAGON, GLP-1, AND GIP TRIGONAL AGONIST” (HANMI PHARM, CO., LTD., priority 2020, published 2023).

Bridge positions count the residues as written; N and C are the ends. Square brackets hold non-standard residues; d marks the D form. Ends that are not written are not given here. * marks the point of attachment. Acetyl(2-(4-imidazolyl)) = O=C(Cc1c[nH]cn1)*; Aib = CC(C)(N)C(=O)O

Assay in all cases: cell-based or functional assay
One test concerns the target human GLP-1 receptor (human, UniProt P43220 24-463).
The target of the next test is human GCG receptor (human, UniProt P47871 26-477).
human GCG receptor, sequence (P47871 26-477): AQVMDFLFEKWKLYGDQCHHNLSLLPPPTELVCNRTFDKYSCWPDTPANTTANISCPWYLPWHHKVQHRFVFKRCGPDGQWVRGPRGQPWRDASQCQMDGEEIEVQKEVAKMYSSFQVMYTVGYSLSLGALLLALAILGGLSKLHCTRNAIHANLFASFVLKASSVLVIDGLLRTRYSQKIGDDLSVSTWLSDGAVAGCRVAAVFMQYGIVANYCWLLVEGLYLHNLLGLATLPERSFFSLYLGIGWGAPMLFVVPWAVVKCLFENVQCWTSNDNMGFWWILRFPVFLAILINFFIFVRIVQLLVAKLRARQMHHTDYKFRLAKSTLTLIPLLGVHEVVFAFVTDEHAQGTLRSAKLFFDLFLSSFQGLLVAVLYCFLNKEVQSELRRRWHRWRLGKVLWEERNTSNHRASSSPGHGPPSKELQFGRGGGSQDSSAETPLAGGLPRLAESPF
The next test has as its target T1, human GIP receptor (human, UniProt P48546 22-466).
T1 sequence (looked up): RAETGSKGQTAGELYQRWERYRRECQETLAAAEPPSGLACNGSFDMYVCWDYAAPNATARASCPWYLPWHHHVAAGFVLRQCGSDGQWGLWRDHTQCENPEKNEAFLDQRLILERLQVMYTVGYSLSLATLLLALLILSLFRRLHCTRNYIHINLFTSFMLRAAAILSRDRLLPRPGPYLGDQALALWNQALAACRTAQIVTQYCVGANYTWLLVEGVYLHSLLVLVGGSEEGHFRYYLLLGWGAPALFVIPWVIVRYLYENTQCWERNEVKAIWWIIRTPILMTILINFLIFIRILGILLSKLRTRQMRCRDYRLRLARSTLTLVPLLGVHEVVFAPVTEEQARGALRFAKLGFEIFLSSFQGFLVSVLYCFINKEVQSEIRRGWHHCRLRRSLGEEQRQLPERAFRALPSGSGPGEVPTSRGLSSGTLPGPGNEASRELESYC

Regarding Y[Aib]QGTFTSDYSKALDEKAAKDFVNWLLDQHPSSGQPPPSC (bridge 16-20; not fully specified (bridges)) [trigonal agonist of SEQ ID NO: 46], in the test with human GLP-1 receptor, the “In Vitro Activity Compared to Native Peptide (%) vs. GLP-1 (relative titer from cAMP EC50)” value came to 23.3%. Further, the “In Vitro Activity Compared to Native Peptide (%) vs. Glucagon (relative titer from cAMP EC50)” value with human GCG receptor is 29.5%. In addition, the “In Vitro Activity Compared to Native Peptide (%) vs. GIP (relative titer from cAMP EC50)” value with human GIP receptor is 58%.
Regarding Y[Aib]QGTFTSDYSKYLDECRAKEFVQWLLDHHPSSGQPPPS (bridge 16-20; not fully specified (bridges)) [trigonal agonist of SEQ ID NO: 1], the “In Vitro Activity Compared to Native Peptide (%) vs. GLP-1 (relative titer from cAMP EC50)” value in the test with human GLP-1 receptor is 17.8%. Also, the “In Vitro Activity Compared to Native Peptide (%) vs. Glucagon (relative titer from cAMP EC50)” value in the test with human GCG receptor was 267%. Also, the “In Vitro Activity Compared to Native Peptide (%) vs. GIP (relative titer from cAMP EC50)” value with human GIP receptor came out at 22.7%.
For the molecule Y[Aib]QGTFTSDYSKYLDEKRAKEFVQWLLDHHCSSGQPPPS (bridge 16-20; not fully specified (bridges)) [trigonal agonist of SEQ ID NO: 10], the “In Vitro Activity Compared to Native Peptide (%) vs. GLP-1 (relative titer from cAMP EC50)” value in the test with human GLP-1 receptor is 12.6%. In the test with human GCG receptor, the “In Vitro Activity Compared to Native Peptide (%) vs. Glucagon (relative titer from cAMP EC50)” value was 88.4%. In the test with human GIP receptor, the “In Vitro Activity Compared to Native Peptide (%) vs. GIP (relative titer from cAMP EC50)” value was 3.7%.
The corresponding values for Y[Aib]QGTFTSDYSKYLDEKRAKEFVQWLLDCHPSSGQPPPS (bridge 16-20; not fully specified (bridges); ends not checked) [trigonal agonist of SEQ ID NO: 41] are 10.5%, 62.8% and 2.6%.
In the same order, the values of H[Aib]QGTFTSDYSKYLDEKACKEFVQWLLAQ (bridge 16-20; not fully specified (bridges)) [trigonal agonist of SEQ ID NO: 4] are 135%, 2.2% and 2.4%.
In the same order, the values of H[Aib]EGTFTSDYSIAMDEIHQKDFVNWLLAQKC (lactam 16-20) [trigonal agonist of SEQ ID NO: 34] are 41.5%, 4.9% and 1.4%.
Consider {Acetyl(2-(4-imidazolyl))}-[Aib]EGTFTSDYSIAMDEIHQKDFVNWLLAQC (lactam 15-19) [trigonal agonist of SEQ ID NO: 36], for which the “In Vitro Activity Compared to Native Peptide (%) vs. GLP-1 (relative titer from cAMP EC50)” value with human GLP-1 receptor was 47.3%. Also, the “In Vitro Activity Compared to Native Peptide (%) vs. Glucagon (relative titer from cAMP EC50)” value with human GCG receptor is 1.3%. Further, the “In Vitro Activity Compared to Native Peptide (%) vs. GIP (relative titer from cAMP EC50)” value with human GIP receptor stood at 0.4%.
Turning to H[Aib]QGTFTSDYSKYLDEKACKDFVQWLLDGGPSSGAPPPS (lactam 16-20) [trigonal agonist of SEQ ID NO: 5], the “In Vitro Activity Compared to Native Peptide (%) vs. GLP-1 (relative titer from cAMP EC50)” value in the test with human GLP-1 receptor is 151%. In the test with human GCG receptor, the “In Vitro Activity Compared to Native Peptide (%) vs. Glucagon (relative titer from cAMP EC50)” value amounted to 1.7%. The “In Vitro Activity Compared to Native Peptide (%) vs. GIP (relative titer from cAMP EC50)” value in the test with human GIP receptor is 8.8%.
Take H[Aib]QGTFTSDYSKYLDECRQKEFVQWLLNGGPSSGAPPPSG (bridge 16-20; not fully specified (bridges)) [trigonal agonist of SEQ ID NO: 8]: the “In Vitro Activity Compared to Native Peptide (%) vs. GLP-1 (relative titer from cAMP EC50)” value with human GLP-1 receptor was 236%. The “In Vitro Activity Compared to Native Peptide (%) vs. Glucagon (relative titer from cAMP EC50)” value with human GCG receptor was determined as 6.21%. The “In Vitro Activity Compared to Native Peptide (%) vs. GIP (relative titer from cAMP EC50)” value with human GIP receptor is 2.2%.
In the same order, the values of [Acetyl(2-(4-imidazolyl))][Aib]QGTFTSDYSKYLDEKRQKEFVNWLLAQKC (bridge 16-20; not fully specified (bridges)) [trigonal agonist of SEQ ID NO: 39] are 5.7%, 0.3% and 0.7%.
Regarding [Acetyl(2-(4-imidazolyl))][Aib]QGTFTSDYSKYLDEKRQKEFVNWLLAQC (bridge 16-20; not fully specified (bridges)) [trigonal agonist of SEQ ID NO: 37], the “In Vitro Activity Compared to Native Peptide (%) vs. GLP-1 (relative titer from cAMP EC50)” value with human GLP-1 receptor amounted to 28.4%. In the test with human GCG receptor, the “In Vitro Activity Compared to Native Peptide (%) vs. Glucagon (relative titer from cAMP EC50)” value is 0.4%. The “In Vitro Activity Compared to Native Peptide (%) vs. GIP (relative titer from cAMP EC50)” value in the test with human GIP receptor turned out to be 0.2%.
In the same order, the values of H[Aib]QGTFTSDYSKYLDEKRQKEFVNWLLAQKC (bridge 16-20; not fully specified (bridges)) [trigonal agonist of SEQ ID NO: 6] are 19.1%, 0.92% and 0.6%.
For the molecule H[Aib]EGTFTSDYSIAMDEIHQKDFVDWLLAEKC (bridge 16-20; not fully specified (bridges)) [trigonal agonist of SEQ ID NO: 35], the “In Vitro Activity Compared to Native Peptide (%) vs. GLP-1 (relative titer from cAMP EC50)” value in the test with human GLP-1 receptor was 8.1%. Besides, the “In Vitro Activity Compared to Native Peptide (%) vs. Glucagon (relative titer from cAMP EC50)” value with human GCG receptor was found to be 0%. The “In Vitro Activity Compared to Native Peptide (%) vs. GIP (relative titer from cAMP EC50)” value in the test with human GIP receptor came out at 0.1%.
The corresponding values for Y[Aib]QGTFTSDYSKALDEKAAKEFVNWLLDHHPSSGQPPPSC (bridge 16-20; not fully specified (bridges)) [trigonal agonist of SEQ ID NO: 42] are 28.1%, 8.2% and 47.1%.
As for Y[Aib]QGTFTSDYSKALDEKAAKEFVNWLLDQHPSSGQPPPSC (bridge 16-20; not fully specified (bridges)) [trigonal agonist of SEQ ID NO: 45], the “In Vitro Activity Compared to Native Peptide (%) vs. GLP-1 (relative titer from cAMP EC50)” value in the test with human GLP-1 receptor was 23.2%. The “In Vitro Activity Compared to Native Peptide (%) vs. Glucagon (relative titer from cAMP EC50)” value in the test with human GCG receptor is 13.9%. Also, in the test with human GIP receptor, the “In Vitro Activity Compared to Native Peptide (%) vs. GIP (relative titer from cAMP EC50)” value was 40.1%.
As to Y[Aib]QGTFTSDYSKYLDEKRAKEFVQWLLDHHPSSGQPPPSC (lactam 16-20) [trigonal agonist of SEQ ID NO: 9], the “In Vitro Activity Compared to Native Peptide (%) vs. GLP-1 (relative titer from cAMP EC50)” value with human GLP-1 receptor amounted to 33.9%. In addition, the “In Vitro Activity Compared to Native Peptide (%) vs. Glucagon (relative titer from cAMP EC50)” value in the test with human GCG receptor came out at 206%. In the test with human GIP receptor, the “In Vitro Activity Compared to Native Peptide (%) vs. GIP (relative titer from cAMP EC50)” value came out at 7.8%.
Turning to Y[Aib]QGTFTSDYSKYLDEKRAKEFVQWLLDHCPSSGQPPPS (bridge 16-20; not fully specified (bridges); ends not checked) [trigonal agonist of SEQ ID NO: 40], in the test with human GLP-1 receptor, the “In Vitro Activity Compared to Native Peptide (%) vs. GLP-1 (relative titer from cAMP EC50)” value amounted to 34.4%. Moreover, in the test with human GCG receptor, the “In Vitro Activity Compared to Native Peptide (%) vs. Glucagon (relative titer from cAMP EC50)” value was 195%. Further, the “In Vitro Activity Compared to Native Peptide (%) vs. GIP (relative titer from cAMP EC50)” value with human GIP receptor was 5.2%.
In the same order, the values of Y[Aib]QGTFTSDYSKALDEKAAKEFVQWLLDQHPSSGQPPPSC (bridge 16-20; not fully specified (bridges)) [trigonal agonist of SEQ ID NO: 44] are 42.2%, 12.7% and 118%.
Consider [Acetyl(2-(4-imidazolyl))][Aib]EGTFTSDYSIAMDEIHQKDFVDWLLAEKC (bridge 16-20; not fully specified (bridges)) [trigonal agonist of SEQ ID NO: 38], for which the “In Vitro Activity Compared to Native Peptide (%) vs. GLP-1 (relative titer from cAMP EC50)” value in the test with human GLP-1 receptor was 31.9%. For the same molecule, in the test with human GCG receptor, the “In Vitro Activity Compared to Native Peptide (%) vs. Glucagon (relative titer from cAMP EC50)” value is 16.8%. For the same molecule, the “In Vitro Activity Compared to Native Peptide (%) vs. GIP (relative titer from cAMP EC50)” value with human GIP receptor came to 0.3%.
The corresponding values for Y[Aib]QGTFTSDYSKALDEKAAKDFVNWLLDHHPSSGQPPPSC (bridge 16-20; not fully specified (bridges)) [trigonal agonist of SEQ ID NO: 43] are 20.9%, 14.9% and 57.7%.
In the same order, the values of H[Aib]QGTFTSDYSKYLCEKRQKEFVQWLLNGGPSSGAPPPSG (bridge 16-20; not fully specified (bridges)) [trigonal agonist of SEQ ID NO: 7] are 37.4%, 0.39% and 0.2%.
